The record followed here is patent publication US20050059087A1, “Antibodies directed to the deletion mutants of epidermal growth factor receptor and uses thereof” (priority 2003, published 2005).

Changes are numbered by the printed parent chain.

In assay [1] the target is T1, EGFrVIII peptide sequence (residues 1-20) (Homo sapiens, UniProt P00533, DELINS30-297G).
T1 construct: purchased Sigma-Genosys (custom SPOTs array)
Briefly: Epitope mapping by SPOTs peptide array and Alanine scanning. Format: binding. Conditions: SEQ ID 94/98 = EEKKGNYVVT; 95 = LEEKKGNYVVTD; 96 = YVVTDH; 97 = YVVTD; 99 = GNYVVT. From the text: The approach that was used was a custom SPOTs peptide array (Sigma Genosys) to study the molecular interaction of the human anti-EGFrVIII antibodies with their peptide epitope. SPOTs technology is based on the solid-phase synthesis of peptides in a format suitable for the systematic analysis of antibody epitopes. Synthesis of custom arrayed oligopeptides is commerically available from Sigma-Genosys. A peptide array of overlapping oligopeptides derived from the amino-acid sequence of the EGFr VIII variant was ordered from Sigma-Genosys.
A series of nine 12-mer peptides were synthesized as spots on polypropylene membrane sheets. The peptide array spanned residues 1-20 of the EGFrVIII sequence, representing the deletion of amino acids 6-273 in the extracellular domain of wtEGFr, and the generation of a glycine (G) residue at the junction point. Each consecutive peptide was offset by 1 residue from the previous one, yielding a nested, overlapping library of arrayed oligopeptides. The membrane carrying the 9 peptides was reacted with 9 different anti EGFrVIII antibodies (1 μg/ml). The binding of the mAbs to the membrane-bound peptides was assessed by an enzyme-linked immunosorbent assay using HRP-conjugated secondary antibody followed by enhanced chemiluminescence (ECL).
In addition, functional epitopes were mapped by combinatorial Alanine scanning. In this process, a combinatorial Alanine-scanning strategy was used to identify amino acids in the EGFrVIII peptide necessary for interaction with anti-EGFRvIII mAbs. To accomplish this, a second set of SPOTs arrays was ordered for Alanine scanning. A panel of variants peptides with alanine substitutions in each of the 12 residues was scanned as above. Spot #1, the unmutated sequence, is a positive control for antibody binding.

Assay [2] has as its target T2, Pep-3 (EGFRvIII epitope) (Homo sapiens, UniProt P00533, DELINS30-297G).
T2 construct: purchased Anatech, Inc. (San Jose, Calif.); host or cells: custom synthesis
Briefly: Biacore (surface plasmon resonance) binding kinetics to Pep-3. To be noted: for Ka / dissociation rate constant (kd, koff): parentheses 95% confidence interval. Here is the method: All antigen and mAb samples for Biacore and KinExA analysis were prepared in vacuum-degassed HBS-P buffer (0.01 M HEPES, 0.15 M NaCl, 0.005% surfactant P-20, Biacore Inc., Uppsala, Sweden) containing 100 μg/mL BSA. […] Research grade CM5 biosensor chips were purchased from Biacore, Inc.
Standard EDC/NHS and carbohydrate coupling was used to covalently immobilize mAbs to a CM5 sensor chip. To minimize mass transport and crowding mAbs were immobilized at levels that gave a maximum antigen binding response (Rmax) of no more than 50-100 RU. A reference flow cell on each chip was activated and blocked with no mAb immobilization to serve as a control.
All Biacore kinetic experiments were conducted at 23° C. […] Antigen samples were randomly injected over the biosensor surface in triplicate at 100 μL/min. Several buffer blanks were injected intermittently over the course of an experiment for double referencing. Each pep-3 concentration and blank were injected for 90 seconds. Dissociation was followed for 13 to 180 minutes.
All Biacore sensorgrams were processed using Scrubber software (Version 1.1f, BioLogic Software, Australia). Sensorgrams were first zeroed on the y-axis and then x-aligned at the beginning of the injection. Bulk refractive index changes were removed by subtracting the reference flow cell responses. The average response of all blank injections was subtracted from all analyte and blank sensorgrams to remove systematic artifacts between the experimental and reference flow cells. CLAMP biosensor data analysis software (Version 3.40, BioLogic Software, Australia) was used to determine ka and kd from the processed data sets. Data from all flow cells were globally fit to a 1:1 bimolecular binding model that included a mass transport term. […] The KD was calculated from the quotient kd/ka.
Two CM5 sensor chips were used in total to immobilize both mAbs. […] Biacore 2000 optical biosensors were used for all studies.
Next, pep-3 was flowed across the mAb immobilized biosensor surfaces. The starting concentration of pep-3 was 1.25 μM, which was followed with eight two-fold serial dilutions in randomized triplicate injections. Blank injections were run every sixth sample throughout the injection series for double referencing purposes.
Finally, the biosensor data was processed with Scrubber and the data was fit to curves utilizing Clamp with a 1:1 interaction model with a term included for mass transport. […]

The target in assay [3] is T3, EGFRvIII receptor on NR6 M cells (Homo sapiens, UniProt P00533, DELINS30-297G).
T3 construct: expressed in transfected cells; host or cells: NR6 murine fibroblasts (NR6 M)
Kind of assay: Internalization assay of B-cell culture supernatants (FMAT, glutathione). Format: cell-based. Here is the method: The top 60 native binding B cell culture supernatants were further assayed for their ability to internalize the receptor. NR6 M cells were seeded at 8000 cells/well into 96 well FMAT plates and incubated overnight. Media was removed and 10-15 μl B-Cell culture supernatant in a total volume of 30 μl media, in duplicate was added. Next, 15 μl of secondary antibody (SS Alexa 647 anti-human IgG Fab at 1.5 μg/ml final concentration) was added and the mixture was incubated on ice for 1 hr. An irrelevant B-Cell Culture supernatant was used to see the effect of the culture media. Human anti-EGFRvIII mAb 13.2.1 was used as a positive control starting at 1 μg/ml (final concentration) and negative control was PK 16.3.1 (human anti-KLH IgG2 antibody) at the same concentration. After incubation, the cells were washed with cold PBS, 50 μl media was added to all of the wells, one of the duplicates were incubated at 37° C. for 30 mins while the other duplicate remained on ice. After the incubations media was removed, 100 ul of cold 50 mM glutathione was added to the set incubated at 37° C. and 100 μl of cold media added to the other set, both sets were then left on ice for 1 hr. The cells were then washed with 100 μl cold PBS and then fixed with 1% paraformaldehyde and read in FMAT. The results were expressed as % intermalized, calculated as total fluorescence in the presence of glutathione/total fluorescence in the absence of glutathione X 100.

Assay [4] deals with T4, H1477 (H80-EGFRvIII) cells (Homo sapiens, UniProt P00533, DELINS30-297G).
T4 construct: host or cells: H1477 (H80 human glioblastoma line transfected with EGFRvIII)
Briefly: FACS staining of H1477 (H80-EGFRvIII) cells. It counts as cell-based. Here is the method:
(§1) The specificity of the purified antibodies was ascertained by performing FACS analysis on a panel of cell lines. H80, a human glioblastoma line, and H1477 (H80-EGFRvIII) that expresses high levels of EGFRvIII, A431, a human epidemoid carcinoma line, and A549, a human lung carcinoma cell line were used as the cell lines. All cell lines were from Dr. Bigner except A431 and A549, which were from ATCC (Rockville, Md., U.S.A.). Cells were incubated on ice with 10 μg/ml of the respective antibody for 30 min., washed in FACS buffer and subsequently incubated with PE-conjugated goat anti-human IgG from Jackson ImmunoResearch (West Grove, Pa., U.S.A.). In FIGS. 9A-9L and 10A-10D, the darkened histogram indicates cells stained with an irrelevant IgG, the outlined, or white histogram, represents the staining of the relevant antibodies.

In assay [5] the target is T5, A431 cells (wild type EGFR) (Homo sapiens, UniProt P00533).
T5 construct: host or cells: A431
Kind of assay: FACS staining of A431 cells. Format: cell-based. The method, then:
as §1

The target in assay [6] is T6, A549 cells (wild type EGFR) (Homo sapiens, UniProt P00533).
T6 construct: host or cells: A549
Kind of assay: FACS staining of A549 cells. It counts as cell-based. Here is the method: as §1

The target of assay [7] is T7, EGFRvIII rabbit Fc fusion protein (Homo sapiens, UniProt P00533, DELINS30-297G).
T7 construct: fragment encoding the extracellular domain of EGFRvIII was generated; made in house; host or cells: 293F cells
Kind of assay: Western blot, purified EGFRvIII rabbit Fc fusion protein, reducing / non-reducing. Format: binding. Conditions: native and reduced. The method, then: (§2) Specifcially, a subset of the antibodies were tested for their binding of to lysates of tumor cell lines in Western plates of polyacrylamide gel electrophoresis under either non-reducing or reducing conditions. Purifed recombinant protein is also included. […] Sample identifications: • EGFRvIII—the rabbit Fc fusion protein • H1477—H80 human tumor cell line transfected with EGFRvIII expression contruct. These cells express both EGFR and EGFRvIII. • EGFR—purified wild-type EGFR protein • A431—human tumor cell line expressing only wild-type EGFR • A549—human tumor cell line expressing only wild-type EGFR • H80—human tumor cell line expressing only wild-type EGFR
On the technique in general: In western blotting, separated proteins are transferred to a membrane and probed.

Assay [8] concerns the target purified wild-type EGFR protein (Homo sapiens, UniProt P00533). Briefly: Western blot, purified wild-type EGFR protein. It counts as binding. Here is the method:
as §2

In assay [9] the target is T8, A431 lysate (wild-type EGFR) (Homo sapiens, UniProt P00533).
T8 construct: host or cells: A431
Kind of assay: Western blot, A431 lysate. Format: binding. Here is the method: as §2

B1: 095: XenoMax derived human anti-EGFRvIII antibody (antibody, V domains shown)
VH: QVQLQESGPFLVKPSQTLSLTCTVSGGSISSGGYYWSWIRQHPGKGLEWIGFIYYRGNTYYNPSLKSRVTISVDTSKNQFSLKLSSVTAADTAVYYCARDGYCSRTGCYGGWFDPWGQGTLVTVSP
VL: DIVMTQTPLSSPVTLGQPASISCRSSQSLIHTDGNIYLSWLQQRPGQPPRLLIYKISNRFSGVPDRFSGSGAGTDFTLKISRVEAEDVGVYYCMQGTQFPITFGQGTRLEIK
Consider B1, for which the “Epitope mapped by SPOTs” value in [1] was “(SEQ ID NO: 96)”. In addition, in [2] (curve fitting), the ka is recorded as 1.491*10^5 and the kd is listed as 9.927*10^−3. In assay [2], the Ka was determined as 149000 M⁻¹ s⁻¹ and the “dissociation rate constant (kd, koff)” value stood at 0.0099 s⁻¹.

B2: 125 D10: B-cell culture supernatant well (antibody, V domains shown)
VH: QVQLQQSGPGLVKPSQTLSLTCAISGDSVSSNNAAWNWIRQSPARGLEWLGRTYYRSKWYNDYVVSVKSRITINPDTSKNQFSLQLNSVTPEDTAVYYCVRATAFDYWGQGTLVTVSS
VL: AIVLTQTPLSSPVTLGQPASISCRSSQSLVHRDGNTYLSWLQQRPGQPPRLLIYKISNRFSGVPDRFSGSGAGTDFTLKISRVEPDDVGVYYCMHTTQLPWTFGQGTKVEIK
With B2, the “With glutathione FL1 × count” value in assay [3] (37° C. for 30 mins, then 50 mM glutathione) came out at 1236. Further, in assay [3] (NR6 M cells, 37° C. 30 mins), the “% internalized, (glut+/glut−) × 100” value is recorded as 52.8%. The “No glutathione FL1 × count” value in assay [3] (set kept on ice, no glutathione) worked out at 2342.

B3: 139: XenoMax derived human anti-EGFRvIII IgG1, from well 182A5 (antibody, V domains shown)
VH: EVQVLESGGGLVQPGGSLRLSCAASGFTFSSYAMSWVRQAPGKGLEWVSAISGSGGSTNYADSVKGRFTISRDNSKNTLYLQMNSLRAEDTAVYYCAGSSGWSEYWGQGTLVTVSS
VL: DIQMTQSPSSLSASVGDRVTITCRASQGIRNNLAWYQQKPGKAPKRLIYAASNLQSGVPSRFTGSGSGTEFTLIVSSLQPEDFATYYCLQHHSYPLTSGGGTKVEIK
B3: the “Epitope mapped by SPOTs” value in [1] is listed as “(SEQ ID NO: 95)”. Also, the “Binding to the EGFRvIII protein on the transfected cell lines” value in [4] (10 μg/ml) was “bind”. For the same molecule, in [4] (FIGS. 9A-9L, 10A-10D), the “Selectivity for EGFRvIII expressing cells (H1477) as compared to ABX-EGF” value was “superior selectivity”. For the same molecule, in assay [5], the “Binding / staining of A431 cells in FACS” value is “stained”. Besides, in assay [6], the “Binding / staining of A549 cells in FACS” value is listed as “stained”. The kd in [2] (curve fitting) is reported as 2.981*10^−3. In assay [2], the Ka was found to be 10300 M⁻¹ s⁻¹ and the “dissociation rate constant (kd, koff)” value came to 0.00298 s⁻¹.

B4: 250: XenoMax derived human anti-EGFRvIII antibody, from well 138D2 (antibody, V domains shown)
VH: B3 VH with V2G, V4L, L11W, G16E, M83V, A88V
VL: DIQMTQSPSSLSASVGDSVTITCRTSQGIRKNLGWYQQKPGKAPKRLIYAASSLQSGVPSRFSGSGSGTEFTLTISRLQPEDFATYYCLQHHSYPLTFGGGTRVEIR
With B4, the “Epitope mapped by SPOTs” value in assay [1] is on record as “(SEQ ID NO: 95)”.

B5: 211: XenoMax derived human anti-EGFRvIII antibody, from well 190D7 (antibody, V domains shown)
VH: QVQLVESGGGVVQPGRSLRLSCVASGFTLSSYGMHWVRQAPGKGLEWVAVTSYDGSKKDYADSAKGRFTISRDNSKNTLYLQMNSLRAEDTAVYYCVSEGYCSSSSCYKYYYYGMDVWGQGTTVTVSS
VL: DIVMTQSPLSLPVTPGEPASISCRSSQSLLYRNGNNYLDWYLQRPGQSPQLLIYLGSNRASGVPDRFSGSGSGTDFTLKISRVEAEDVGVYYCMQALQTPRTFGQGTKVEIK
B5: the “Epitope mapped by SPOTs” value in assay [1] is recorded as “(SEQ ID NO: 97)”. The “Binding to purified EGFRvIII in Western blots” value in assay [7] is “binds to both native and reduced”. Besides, in assay [8], the “Binding to purified wildtype EGFr in Western blots” value is recorded as “cross reacted”. In assay [9], the “Binding in Western blot of A431 lysate, reduced sample” value is “no signal” and the “Binding in Western blot of lysate of A431 cells” value is “cross reacted”. Besides, the “Binding in Western blot of A431 lysate, non-reduced sample” value in [9] (band of the size of wild-type EGFR) is “binds strongly”.
